Experimental data as given in article PMC5943153 (Molecular microbiology, 2018).
Several values for one entry are separate records, joined by “and”; a condition that tells them apart may be missing. Equal values may be shown once.

T1: T25-HP1492 (Nfu) (Helicobacter pylori strain 26695, UniProt O26025 2-89)
T1 sequence (looked up): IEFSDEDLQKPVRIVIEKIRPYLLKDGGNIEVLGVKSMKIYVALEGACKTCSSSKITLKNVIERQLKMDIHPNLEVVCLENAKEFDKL

T2: T25-HP0221 (NifU) (Helicobacter pylori strain 26695, UniProt O25009 2-326)
T2 sequence (looked up): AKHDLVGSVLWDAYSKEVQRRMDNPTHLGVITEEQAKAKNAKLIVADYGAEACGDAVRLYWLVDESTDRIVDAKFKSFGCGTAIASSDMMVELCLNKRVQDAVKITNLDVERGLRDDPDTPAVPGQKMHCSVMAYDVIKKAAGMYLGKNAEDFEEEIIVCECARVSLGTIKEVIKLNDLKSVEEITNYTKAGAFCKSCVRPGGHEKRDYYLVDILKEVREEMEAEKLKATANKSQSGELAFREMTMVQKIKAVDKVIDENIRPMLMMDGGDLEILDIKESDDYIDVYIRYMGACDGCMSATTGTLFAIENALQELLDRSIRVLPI

T3: HP0221-T25 (NifU) (Helicobacter pylori strain 26695, UniProt O25009 2-326)
T3 sequence (looked up): T2 sequence (looked up)

B1: T18-HP0277 (natural protein, Helicobacter pylori strain 26695, UniProt O25054 2-84, looked up)
chain: SLLVNDECIACDACREECPSEAIEEGDPIYNIDPDRCTECYGYDDDEPRCVSVCPVDAILPDPNNAESKEELKYKYESLKEQD
B2: T18-HP0220 (natural protein, Helicobacter pylori strain 26695, UniProt O25008 2-387, looked up)
chain: LQRIYLDNNATTRIDPKVKEIMDPFLRDHYGNPSSLHQFGTETHPAIAEALDKLYKGINARDIDDVIITSCATESNNWVLKGVYFDECLKKGKNHIVTTVAEHPAVRSTCNFLESLGVEVTYLPINEHGSITAEQVKEAITEKTALVSVMWANNETGLIFPIEEIGAICKEKGVLFHTDAVQAIGKIPVDVLKANADFLSFSAHKFHGPKGIGGLYIRSGVGLTPLFHGGEHMNGRRSGTLNVPYIVGMGEAMKLAVEHLDYEKEVVGKLRDKLEEALLKIPDVMVVGDRIHRVPNTTLVSVRGIEGEAMLWDLNRSNIAASTGSACASEDLEANPVMVAIGASKELAHTAIRLSLSRFNTEAEIDKTIEVFSQAAVRLRNISSSY
B3: T18-HP1266 (natural protein, Helicobacter pylori strain 26695, UniProt O25856 2-844, looked up)
chain: ITMNINGKTIECQEGQSVLEAARSAGIYIPTICYLSGCSPTVACKMCMVEMDGKRVYSCNTKAKNNATILTNTPTLMDERKSIMQTYDVNHPLECGVCDKSGECELQDMTHLTGVEHQPYAVADDFKALDFWAKALYDPNLCIMCERCVTTCKDNVGENNLKATKADLHAPDKFKDSMSKDAFSVWSRKQKGIISFVGSVPCYDCGECIAVCPVGALSYKDFAYTANAWELKKIHSTCSHCSAGCLISYDVRHFDTLGEESKIFRVLNDFYHNPICGAGRFAFDVSSSPKGSANLKEAQNALKECEAVRIGGDITNEEAFLIERLRKELDFKIYNQEAYRFQQFLKVLGEIKRPSVEEIKTSHLVVTIGSSIKTENPLVRYAINNALKLNKASLIAMHPIKDNALANLCRSSFCITHEVGAEEILLGMLLKMLNIESAALKSLEDSKQNIVDEAALKALEEERKKALEQAEQGCSIGENKAENQEENKTEATTPKEENQEENKTEVKEEKIEVPTKTTYLLLEEAGINLETYEKILALLQKSNNTLLVVGEEIYSHKQAHNIAKMLRLLAQKSAIKLILIPPSANALGIASICQLSEEIFEHEKIVGIRAQGDFTINSDDRVFGKDAASKVDFILPSLNQLEGTITNIEGRVLPLKPALRFEGYDLSDIMQGFGFVEENLIECTHKLPTEAGFKAIEFDYLTNYFANDRVNHRGYLLGTSHFEKSAKECETIECEPIKPLKEKIAFNAYLKYPETQFNNATNKSENLQLKAGVYVSKAFLKKLNKEVGQNITLSKEEEELTGVLYLDESLDQEVFVISPSLLKNHSGFFREGVFDSVDLKEQA
B4: NifS (purified recombinant) (enzyme, Helicobacter pylori strain 26695, UniProt O25008 1-387, looked up)
chain: MLQRIYLDNNATTRIDPKVKEIMDPFLRDHYGNPSSLHQFGTETHPAIAEALDKLYKGINARDIDDVIITSCATESNNWVLKGVYFDECLKKGKNHIVTTVAEHPAVRSTCNFLESLGVEVTYLPINEHGSITAEQVKEAITEKTALVSVMWANNETGLIFPIEEIGAICKEKGVLFHTDAVQAIGKIPVDVLKANADFLSFSAHKFHGPKGIGGLYIRSGVGLTPLFHGGEHMNGRRSGTLNVPYIVGMGEAMKLAVEHLDYEKEVVGKLRDKLEEALLKIPDVMVVGDRIHRVPNTTLVSVRGIEGEAMLWDLNRSNIAASTGSACASEDLEANPVMVAIGASKELAHTAIRLSLSRFNTEAEIDKTIEVFSQAAVRLRNISSSY
B5: T18-HP0207 (natural protein, Helicobacter pylori strain 26695, UniProt O24999 2-368, looked up)
chain: LTQEDVLNALKTIIYPNFEKDIVSFGFVKNITLHDDQLGLLIEIPSSSEETSAILRENISKAMQEKGVKALNLDIKTPPKPQAPKPTTKNLAKNIKHVVMISSGKGGVGKSTTSVNLSIALANLNQKVGLLDADVYGPNIPRMMGLQSADVIMDPSGKKLIPLKAFGVSVMSMGLLYDEGQSLIWRGPMLMRAIEQMLSDIIWGDLDVLVVDMPPGTGDAQLTLAQAVPLSAGITVTTPQIVSLDDAKRSLDMFKKLHIPIAGIVENMGSFVCEHCKKESEIFGSNSMSELLEAYHTQILAKLPLEPKVRLGGDRGEPIVISHPNSVSAKIFEKMAQDLSAFLERVKKEKLADNKDIQPTQTHACSH
B6: NifU (purified recombinant) (natural protein, Helicobacter pylori strain 26695, UniProt O25009 1-326, looked up)
chain: MAKHDLVGSVLWDAYSKEVQRRMDNPTHLGVITEEQAKAKNAKLIVADYGAEACGDAVRLYWLVDESTDRIVDAKFKSFGCGTAIASSDMMVELCLNKRVQDAVKITNLDVERGLRDDPDTPAVPGQKMHCSVMAYDVIKKAAGMYLGKNAEDFEEEIIVCECARVSLGTIKEVIKLNDLKSVEEITNYTKAGAFCKSCVRPGGHEKRDYYLVDILKEVREEMEAEKLKATANKSQSGELAFREMTMVQKIKAVDKVIDENIRPMLMMDGGDLEILDIKESDDYIDVYIRYMGACDGCMSATTGTLFAIENALQELLDRSIRVLPI
B7: Nfu (purified recombinant) (natural protein, Helicobacter pylori strain 26695, UniProt O26025 1-89, looked up)
chain: MIEFSDEDLQKPVRIVIEKIRPYLLKDGGNIEVLGVKSMKIYVALEGACKTCSSSKITLKNVIERQLKMDIHPNLEVVCLENAKEFDKL

Columns and labels:
T25-HP0220 (NifS) = T25-HP0220 (NifS) (Helicobacter pylori strain 26695, UniProt O25008 2-387); assay: two-hybrid
T25-HP1492 (Nfu) = molecular target: T1, T25-HP1492 (Nfu); assay: two-hybrid
T25-HP0221 (NifU) = molecular target: T2, T25-HP0221 (NifU); assay: two-hybrid
HP0221-T25 (NifU) = molecular target: T3, HP0221-T25 (NifU); assay: two-hybrid
SEC = molecular target: the molecule itself; assay: SEC

| Binder | growth OD595 in M63-maltose (T25-HP0220 (NifS)) | growth OD595 in M63-maltose (T25-HP1492 (Nfu)) | growth OD595 in M63-maltose (T25-HP0221 (NifU)) | growth OD595 in M63-maltose (HP0221-T25 (NifU)) | stoichiometry N (SEC) |
| --- | --- | --- | --- | --- | --- |
| B1 | 0.3 OD595 | 0.4 OD595 |  |  |  |
| B2 | 0.29 OD595 | 0.22 OD595 | 0.13 OD595 | 0.11 OD595 |  |
| B3 | 0.16 OD595 | 0.24 OD595 |  |  |  |
| B4 |  |  |  |  | 2 |
| B5 | 0.23 OD595 | 0.21 OD595 | 0.14 OD595 | 0.13 OD595 |  |
| B6 |  |  |  |  | 2 |
| B7 |  |  |  |  | 4 and 2 |
